Entries after “also recorded” stand apart in the source; their conditions may differ.
Legend:
MDA-MB-231 (HER2−) cells = test: HerDox targeted toxicity in vitro, separate cultures; type: cell-based, human; settings: MDA-MB-231, day 3
Description: (§1) All treatments, N=3. FIG. 27A. Comparing cytotoxicity to HER2+ (MDAMB-435) and HER2− (MDA-MB-231) cells in separate cultures. Left, Relative survival (as % of untreated cells) on day 3 of treatment. Right, Micrograph of live cells after treatment. Control, mock (HBS) treatment. FIG. 27B, Receptor specificity of cytotoxicity. […] FIG. 27C, Toxicity to cells displaying differential HER2. Cytotoxicities from HerDox titrations were assessed on each cell line by metabolic assay and confirmed by crystal violet stain on day 3 of treatment. CD50 values (shown in log scale) were determined by non-linear regression analyses of HerDox killing curves using GraphPad Prism. The relative HER2 level of each cell line is shown next to each CD50 value. FIG. 27D, Targeting in a mixed MDA-MB-435(HER2+,GFP−)/MDA-MB-231(HER2−,GFP+) cell culture. Survival was determined by calculating the relative doubling time (DT) of experimental (exp) cells normalized by mock-treated (con) cells based on crystal violet stains (total cells) and GFP fluorescence (MDAMB-231 cells), and applying DTMDA-MB-435=DTTotal-DTMDA-MB-231 as previously described. Relative survival is shown for Day 2 of treatment. FIG. 27E, Targeted glioma cell death in vitro. U251 cells were treated once with the indicated HerDox (and competitive inhibitor where indicated) or Dox doses and measured for cell survival at the indicated time points after treatment. * P<0.05 compared to Mock.
For all in vitro treatments, cell lines were grown for ˜36 h after plating (104/well in 96-well dishes) to allow receptor re-expression, followed by media replacement with new media containing indicated constructs in reduced volume at the indicated final molarities for 4 h with rocking, followed by supplementation with additional media and continued growth for the indicated time periods. Except for the experiments performed on the U251 glioma cells (which received a one-time treatment), cells received these treatments daily while separate sets of wells were assessed for cell death by either metabolic assay (CellTiter Promega Corporation, Madison, WI, USA) or crystal violet stain each day. Where indicated, cells received competitive inhibitor (eHRG) at 10× molar excess for 30 min-1 h at 4° C. before treatment. Treatment of mixed (HER2+/HER2−) cell cultures with HerDox or Dox (0.5 uM), and cell surface receptor subunit level determination were performed as previously described.

[1] = Cardiac function (echocardiography) and myocardial histology of treated mice
Description: Histology of myocardia from treated mice. Micrographs show representative H&E stained specimens from treated mice.
Female immunodeficient (nu/nu) mice (6-8 weeks; Charles River Laboratories International, Wilmington, MA, USA) received subcutaneous bilateral flank injections of 1×10^7 indicated cells and monitored until tumors reached ˜200-300 mm3, at which point the following treatments were initiated. […] To assess therapeutic efficacy, a new group of tumor-bearing mice received daily i.v. (tail vein) injections of HerDox or Dox at indicated doses for 7 days followed by continued monitoring of tumor volumes (assessed by measuring tumor length and width using calipers, and applying LxW2), animal weights, and heart function. […] Cardiac function in anesthetized mice was evaluated by a Vevo 770 High-Frequency Ultrasound system (VisualSonics, Toronto, Canada). Heart rate and body temperature were monitored. Superficial hair was removed from the region of interest with a depilatory cream (Nair) before imaging. The 2-dimensional guided M-mode images of the left ventricle were obtained in the short-axis view at the papillary level with the mouse in the supine position. All primary measurements were traced manually and digitized by goal-directed software installed within the echocardiograph. Three beats were averaged for each measurement. All measurements were done from leading edge to leading edge according to the American Society of Echocardiography guidelines. At animal study completion, tissue harvested from euthanized mice were fixed in 4% paraformaldehyde/PBS at 4° C. for 24 h followed by transfer into 20% sucrose/PBS and storage at −80° C. before immunohistochemical processing. Specimens and hematoxylin/eosin staining were prepared by AML Laboratories, Inc., Baltimore, MD, USA.

MDA-MB-231 = test: HerDox cytotoxicity dose curves (metabolic assay, crystal violet); type: cell-based, human; settings: MDA-MB-231, low HER2; day 3; read-out: CD50 (the source's name)
Description: (§2) FIG. 21 depicts, in accordance with an embodiment herein, toxicity to cells displaying differential HER2. Cytotoxicities from a range of HerDox doses were assessed on each cell line by metabolic assay and confirmed by crystal violet stain. CD50 values (shown in log scale) were determined by non-linear regression analyses of HerDox dose curves using a scientific graphing program (GraphPad Prism) and confirmed with an on-line calculator (Chang bioscience). The relative HER2 level of each cell line is shown next to each CD50 value.
as §1, with “FIG. 27D, Targeting in a mixed MDA-MB-435(HER2+,GFP−)/MDA-MB-231(HER2−,GFP+) cell culture.” left out, “Relative survival is shown for Day 2 of treatment. FIG. 27E, Targeted glioma cell death in vitro.” left out, “Mock. […]” for “Mock.”
(§3) To assess the contribution of HER2 to therapeutic efficacy in vitro, we determined HerDox CD50 on selected human tumor lines displaying HER2 at relatively high (SKBR3), moderate (MDA-MB-435, MDAMB-453, HeLa), and low to undetectable (MDA-MB-231) levels, according to our receptor subunit profiling of a cell line panel.

SKBR3 = test: as above; type: cell-based, human; settings: SKBR3, high HER2; day 3; read-out: CD50 (the source's name)
Description: as §2
as §1, with “FIG. 27D, Targeting in a mixed MDA-MB-435(HER2+,GFP−)/MDA-MB-231(HER2−,GFP+) cell culture.” left out, “Relative survival is shown for Day 2 of treatment. FIG. 27E, Targeted glioma cell death in vitro.” left out, “Mock. […]” for “Mock.”
as §3

[2] = Stability in blood, ultrafiltration; type: in vitro ADME; settings: 1 h at 37° C. in mouse blood
Description: FIG. 26A. Stability in blood. […] N=3. […] FIG. 26C. Assessing Dox retention in serum.

## COc1cccc2c1C(=O)c1c(O)c3c(c(O)c1C2=O)C[C@@](O)(C(=O)CO)C[C@@H]3O[C@H]1C[C@H](N)[C@H](O)[C@H](C)O1.Cl [Dox, Doxorubicin-HCl, reference compound]
MDA-MB-231 (HER2−) cells
  toxicity / survival: no preference

B1: HerDox: self-assembled nanoparticle of oligonucleotide duplex, doxorubicin and HerPBK10 (conjugate)
chain: LPPRLKEMKSQESAAGSKLVLRCETSSEYSSLRFKWFKNGNELNRKNKPQNIKIQKKPGKSELRINKASLADSGEYMCKVISKLGNDSASANITIVESNEIITGMPASTEGAYVSSESPIRISVSTEGANTSSSTSTSTTGTSHLVKCAEKEKTFCVNGGECFMVKDLSNPSRYLCKCQPGFTGARCTENVPMKVQNQEKAEELYMRRAAMYEEGPPPSYESVVSAAPVAAALGSPFDAPLDPPFVPPRYLRPTGGRNSIRYSELAPLFDTTRVYLVDNKSTDVASLNYQNDHSNFLTTVIQNNDYSPGEASTQTINLDDRSHWGGDLKTILHTNMPNVNEFMFTNKFKARVMVSRLPTKDNQVELKYEWVEFTLPEGNYSETMTIDLMNNAIVEHYLKVGRQNGVLESDIGVKFDTRNFRLGFDPVTGLVMPGVYTNEAFHPDIILLPGCGVDFTHSRLSNLLGIRKRQPFQEGFRITYDDLEGGNIPALLDVDAYQASLKDDTEQGGGGAGGSNSSGSGAEENSNAAAAAMQPVEDMNDHAIRGDTFATRAEEKRAEAEAAAEAAAPAAQPEVEKPQKKPVIKPLTEDSKKRSYNLISNDSTFTQYRSWYLAYNYGDPQTGIRSWTLLCTPDVTCGSEQVYWSLPDMMQDPVTFRSTRQISNFPVVGAELLPVHSKSFYNDQAVYSQLIRQFTSLTHVFNRFPENQILARPPAPTITTVSENVPALTDHGTLPLRNSIGGVQRVTITDARRRTCPYVYKALGIVSPRVLSSRTFKKKKKKKKKK
[1]; H&E
  myocardial histology: normal cardiac morphology
[1]; echocardiography 25 days following injections, 0.004 mg/kg
  stroke volume, cardiac output, left ventricular internal dimension and volume: no effect on these measurements; also recorded: no cardiac dysfunction or histological damage
MDA-MB-231
  IC50: > 8000 nM
SKBR3
  IC50: 56 ± 17 nM
[2]
  Dox release in blood (filtrate/retentate fluorescence): no detectable fluorescence in filtrates nor loss from retentates

— patent US11795454B2, “Targeted delivery system” (Cedars-Sinai Medical Center, priority 2009, dated 2023)
